Source: patent publication US20110065632A1, “PHARMACEUTICAL COMPOSITIONS OF SOMATOSTATIN-DOPAMINE CONJUGATES” (priority 2008, published 2011)
pIC50, pKi: −log10 of the molar value. ≈ marks a conversion by molar mass, not a printed value.

How the values were obtained:
[1] = target: T1, sst2-D2 (Homo sapiens, UniProt P14416+P30874); assay: cAMP Responsive Element-Luciferase reporter gene assay, sst2-D2 co-transfected HEK-293 cells; format: cell-based; conditions: read-out: IC50 value of cAMP inhibition
T1 construct: expressed in transfected cells; host or cells: HEK-293, transient co-transfection
T1 sequence (P30874 whole entry): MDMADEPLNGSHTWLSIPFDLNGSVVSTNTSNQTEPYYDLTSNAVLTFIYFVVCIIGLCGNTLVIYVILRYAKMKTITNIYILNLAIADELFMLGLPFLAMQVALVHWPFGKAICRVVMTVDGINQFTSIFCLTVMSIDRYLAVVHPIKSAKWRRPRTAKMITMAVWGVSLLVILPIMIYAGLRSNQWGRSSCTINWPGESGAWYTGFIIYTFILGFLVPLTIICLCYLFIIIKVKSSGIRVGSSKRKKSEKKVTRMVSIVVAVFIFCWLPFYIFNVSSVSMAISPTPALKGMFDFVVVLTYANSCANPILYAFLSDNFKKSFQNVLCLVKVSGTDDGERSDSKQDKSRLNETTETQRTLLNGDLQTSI
T1 sequence (P14416 whole entry): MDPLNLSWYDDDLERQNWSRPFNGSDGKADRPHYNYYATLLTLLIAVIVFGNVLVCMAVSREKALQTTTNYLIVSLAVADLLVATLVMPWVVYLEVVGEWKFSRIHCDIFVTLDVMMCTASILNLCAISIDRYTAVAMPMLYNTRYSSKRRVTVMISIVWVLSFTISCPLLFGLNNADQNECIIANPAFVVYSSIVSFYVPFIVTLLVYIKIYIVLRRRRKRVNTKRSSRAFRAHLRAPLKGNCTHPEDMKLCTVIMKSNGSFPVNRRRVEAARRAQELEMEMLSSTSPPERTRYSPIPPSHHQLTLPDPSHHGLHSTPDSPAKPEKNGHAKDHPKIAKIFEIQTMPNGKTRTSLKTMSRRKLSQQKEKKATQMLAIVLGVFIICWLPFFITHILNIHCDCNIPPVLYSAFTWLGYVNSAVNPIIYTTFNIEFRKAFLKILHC
Protocol: (§1) A cAMP Responsive Element-Luciferase reporter gene assay in HEK-293 cells was used in this assay, wherein said HEK-293 cells were transiently transfected with D2 and/or sst2 cDNA. […] In sst2-monotransfected cells, the IC50 value of cAMP inhibition of Example 1 was 0.04 nM.

[2] = Solubility of Example 1 at various concentrations of DMA and PEG400; format: physicochemical
Protocol: A compound that may advantageously be used to practice the invention can be tested to determine its solubility at different DMA and PEG400 concentrations using the following procedure.
To about 1 mg of Example 1 were added increasing volumes of the above solvents or buffers. When a soluble volume was reached, the concentration was calculated by weight/volume. When Example 1 was not soluble, the solution was centrifuged and the supernatant was analyzed by HPLC to determine the concentrations. The determined concentration is treated as the solubility of Example 1 in that solvent or buffer.
The solution pHs were checked. They were about pH 7. No further adjustment was done.

[3] = target: T2, hUTII (Homo sapiens, UniProt Q9UKP6); assay: hUTII inhibition constant; format: binding; conditions: read-out: hUTII Ki
T2 sequence (Q9UKP6 1-389): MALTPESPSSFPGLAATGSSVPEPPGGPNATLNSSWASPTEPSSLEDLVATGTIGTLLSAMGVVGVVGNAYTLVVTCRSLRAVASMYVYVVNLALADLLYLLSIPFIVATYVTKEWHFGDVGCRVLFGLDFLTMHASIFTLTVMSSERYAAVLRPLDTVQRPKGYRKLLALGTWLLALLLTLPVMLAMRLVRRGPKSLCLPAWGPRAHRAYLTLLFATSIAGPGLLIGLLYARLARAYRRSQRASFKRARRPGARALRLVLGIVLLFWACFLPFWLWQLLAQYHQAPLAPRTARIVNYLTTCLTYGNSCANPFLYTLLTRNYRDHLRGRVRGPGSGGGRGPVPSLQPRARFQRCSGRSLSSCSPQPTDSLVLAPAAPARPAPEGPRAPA
Protocol: Using the discussed assays, the inhibition constants (Ki) for the five human somatostatin receptors (hSSTR1-hSSTR5) and the dopamine-2 receptor (hUTII and hDA2) were measured for the exemplified somatostatin-dopamine conjugates, as follows: […]

[4] = target: T3, hsst2 (Homo sapiens, UniProt P30874); assay: Somatostatin receptor radioligand binding assay, hsst2; conditions: CHO-K1 membranes, [125I]MK-678; read-out: hsst2 Ki
T3 construct: expressed in transfected cells
T3 sequence (P30874 whole entry): as the sequence (P30874 whole entry) above
Summary of the method: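 Membranes from CHO-K1 cells stably expressing human SSTR2, in 10 mM Tris-HCl, incubated 90 min at 25 °C with 0.05 nM [125I]MK-678. Bound ligand collected by filtration on PEI-soaked GF/C filters; nonspecific binding defined with 1000 nM MK-678.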

[5] = target: T4, hsst1 (Homo sapiens, UniProt P30872); assay: Somatostatin receptor radioligand binding assay, hsst1
T4 construct: expressed in transfected cells
T4 sequence (P30872 whole entry): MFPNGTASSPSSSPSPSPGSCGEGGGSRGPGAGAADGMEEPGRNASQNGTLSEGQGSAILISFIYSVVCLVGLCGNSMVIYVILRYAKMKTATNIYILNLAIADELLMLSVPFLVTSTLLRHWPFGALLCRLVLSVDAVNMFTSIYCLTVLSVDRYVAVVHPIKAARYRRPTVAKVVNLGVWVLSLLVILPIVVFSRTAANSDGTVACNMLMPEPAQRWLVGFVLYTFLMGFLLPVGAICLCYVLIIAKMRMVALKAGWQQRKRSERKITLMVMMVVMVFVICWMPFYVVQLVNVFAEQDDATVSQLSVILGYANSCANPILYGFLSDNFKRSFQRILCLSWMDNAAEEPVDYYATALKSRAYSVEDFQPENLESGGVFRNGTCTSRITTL
Summary of the method: (§2)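 Membranes from CHO-K1 cells stably transfected with each human SSTR subtype, incubated 90 min at 25 °C with 0.05 nM [125I-Tyr11]SS-14 in 50 mM HEPES pH 7.4 with BSA, MgCl2 and protease inhibitors; filtration read-out. Nonspecific binding with 1000 nM SS-14; Ki values reported.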

[6] = target: T5, hsst3 (Homo sapiens, UniProt P32745); assay: Somatostatin receptor radioligand binding assay, hsst3
T5 construct: expressed in transfected cells
T5 sequence (P32745 whole entry): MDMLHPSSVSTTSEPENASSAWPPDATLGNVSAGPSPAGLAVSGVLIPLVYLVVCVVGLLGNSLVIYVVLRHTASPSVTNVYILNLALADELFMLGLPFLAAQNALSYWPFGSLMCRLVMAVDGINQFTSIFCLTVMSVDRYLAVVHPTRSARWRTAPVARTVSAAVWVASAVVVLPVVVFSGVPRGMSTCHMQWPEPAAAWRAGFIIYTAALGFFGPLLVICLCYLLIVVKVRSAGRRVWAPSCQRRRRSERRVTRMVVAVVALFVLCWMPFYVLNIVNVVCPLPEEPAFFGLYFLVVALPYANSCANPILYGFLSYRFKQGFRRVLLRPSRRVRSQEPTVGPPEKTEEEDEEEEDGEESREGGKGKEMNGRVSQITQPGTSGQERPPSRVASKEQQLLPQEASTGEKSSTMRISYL
Summary of the method: as §2

[7] = target: T6, sst2 (Homo sapiens, UniProt P30874); assay: cAMP Responsive Element-Luciferase reporter gene assay, sst2-monotransfected HEK-293 cells; format: cell-based; conditions: read-out: IC50 value of cAMP inhibition
T6 construct: expressed in transfected cells; host or cells: HEK-293, transient
T6 sequence (P30874 whole entry): as the sequence (P30874 whole entry) above
Protocol: as §1

For `CCCN1C[C@H](CSCC(=O)NCCCC[C@@H](NC(=O)CSC[C@@H]2C[C@@H]3c4cccc5[nH]cc(c45)C[C@H]3N(CCC)C2)C(=O)N[C@H]2CSSC[C@@H](C(=O)N[C@H](C(N)=O)[C@@H](C)O)NC(=O)[C@H](CC)NC(=O)[C@H](CCCCN)NC(=O)[C@@H](Cc3c[nH]c4ccccc34)NC(=O)[C@H](Cc3ccc(O)cc3)NC2=O)C[C@@H]2c3cccc4[nH]cc(c34)C[C@H]21` [Example 1, Dop2-DLys(Dop2)-cyclo[Cys-Tyr-DTrp-Lys-Abu-Cys]-Thr-NH2], the pIC50 [1] was 10.70, the solubility ([2]; 5% DMA in PBS, PBS pH 7, 5% DMA, by HPLC) was 130 µg/mL (≈ 76.7 µM) and the solubility ([2]; 5% DMA in water, Water pH 7, 5% DMA) was over 100000 µg/mL. It also gave a solubility ([2]; 5% PEG400 in PBS, PBS pH 7, 5% PEG400, by HPLC) of 50 µg/mL (≈ 29.5 µM), a solubility ([2]; 5% PEG400 in water, Water pH 7, 5% PEG400) of over 50000 µg/mL and a solubility ([2]; 10% DMA in PBS, PBS pH 7, 10% DMA, by HPLC) of 480 µg/mL (≈ 283 µM). For the same compound, the solubility ([2]; 10% DMA in water, Water pH 7, 10% DMA) was over 100000 µg/mL, the solubility ([2]; 10% PEG400 in PBS, PBS pH 7, 10% PEG400, by HPLC) was 330 µg/mL (≈ 195 µM) and the solubility ([2]; 10% PEG400 in water, Water pH 7, 10% PEG400) was over 50000 µg/mL. For the same compound, the solubility ([2]; 20% DMA in PBS, PBS pH 7, 20% DMA, by HPLC) was 780 µg/mL (≈ 460 µM), the solubility ([2]; 20% DMA in water, Water pH 7, 20% DMA) was over 100000 µg/mL and the solubility ([2]; 20% PEG400 in PBS, PBS pH 7, 20% PEG400, by HPLC) was 750 µg/mL (≈ 443 µM). It also gave a solubility ([2]; 20% PEG400 in water, Water pH 7, 20% PEG400) of over 50000 µg/mL, a solubility ([2]; 30% DMA in PBS, PBS pH 7, 30% DMA, by HPLC) of 4200 µg/mL (≈ 2480 µM) and a solubility ([2]; 30% DMA in water, Water pH 7, 30% DMA) of over 100000 µg/mL. The solubility ([2]; 30% PEG400 in PBS, PBS pH 7, 30% PEG400, by HPLC) was 2980 µg/mL (≈ 1760 µM), the solubility ([2]; 30% PEG400 in water, Water pH 7, 30% PEG400) was over 50000 µg/mL and the solubility ([2]; 40% DMA in PBS, PBS pH 7, 40% DMA) was over 50000 µg/mL. The solubility ([2]; 40% DMA in water, Water pH 7, 40% DMA) was over 100000 µg/mL, the solubility ([2]; 40% PEG400 in PBS, PBS pH 7, 40% PEG400, by HPLC) was 3500 µg/mL (≈ 2070 µM) and the solubility ([2]; 40% PEG400 in water, Water pH 7, 40% PEG400) was over 50000 µg/mL. For the same compound, the solubility ([2]; PBS (0% DMA), PBS pH 7, 0% DMA, by HPLC) was 40 µg/mL (≈ 23.6 µM), the solubility ([2]; water (0% DMA), Water pH 7, 0% DMA, by HPLC) was 860 µg/mL (≈ 508 µM) and the “Solubility in water based versus PBS based solvents” value ([2]; water vs PBS) was “much more soluble in water based solvents than in PBS based solvents”. For the same compound, the pKi [3] was 6.29, the pKi [4] was 10.52 and the pKi [5] was 6.07. For the same compound, the pKi [6] was 6.80 and the pIC50 [7] was 10.40.
